The conditions of this data set: Equus caballus, pH 7, 10 °C, GdnHCl, Fluorescence, Sodium phosphate 0.1 M.

The source of these data is FireProtDB (doi:10.1021/bi960052u).

Chain of Cytochrome c L95I, P00004 (P00004 whole entry L95I): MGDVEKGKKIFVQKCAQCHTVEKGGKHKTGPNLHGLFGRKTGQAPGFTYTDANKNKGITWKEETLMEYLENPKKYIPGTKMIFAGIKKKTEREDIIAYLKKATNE
Chain of Cytochrome c L95V, P00004 (P00004 whole entry L95V): as the sequence (P00004 whole entry L95I) above, with I95V counted along it
Chain of Cytochrome c wild type, P00004 (P00004 whole entry): as the sequence (P00004 whole entry L95I) above, with I95L counted along it
Chain of Cytochrome c L95A, P00004 (P00004 whole entry L95A): as the sequence (P00004 whole entry L95I) above, with I95A counted along it

In the case of Cytochrome c L95A, P00004, under “structure 1AKK”, the “ddG of mutation (higher = less stable)” value amounted to 3.5 kcal/mol, the denaturant m value is 3.7 kcal/mol/M, the “denaturant midpoint (higher = more stable)” value (“denaturant midpoint” below) turned out to be 1.67 M and the unfolding free energy stood at 6.2 kcal/mol.

Turning to Cytochrome c wild type, P00004, the denaturant m value was 3.5 kcal/mol/M, the “denaturant midpoint” value stood at 2.77 M and the unfolding free energy is 9.7 kcal/mol.

For Cytochrome c L95I, P00004, where the note is “structure 1AKK”, the “ddG of mutation (higher = less stable)” value was -0.2 kcal/mol, the denaturant m value came out at 4 kcal/mol/M, the “denaturant midpoint” value was 2.47 M and the unfolding free energy was found to be 9.9 kcal/mol.

As for Cytochrome c L95V, P00004, for the setting “structure 1AKK”, the “ddG of mutation (higher = less stable)” value was determined as 0.8 kcal/mol, the denaturant m value worked out at 3.6 kcal/mol/M, the “denaturant midpoint” value was determined as 2.47 M and the unfolding free energy amounted to 8.9 kcal/mol.
